Experimental data taken from patent US20240002497A1 (Merck Sharp & Dohme, published 2024).
Where a chain is given by its changes, count along the chain named. Names and notes keep the numbering of the source.

B1: F010301840 (VHH)
VHH: EVQLVESGGGVVQPGGSLRLSCAASGPVFNINRMAWYRQAPGKQRELVAYVTPTGDISYTDSVKGRFTISRDGSKRTWSLQMNSLRPEDTALYYCRALLQPDSYSNTRTYWGQGTLVTVSS
notes: also called F0103387G04(R76_V78insT)(L11V, A12V, K33R, R39Q, S50Y, S56D, T83R, V89L, N93R)
B2: F010301567 (VHH)
VHH: EVQLVESGGGLVQAGGSLRLSCAASVRPYSTSAMGWFRQAPEKEREAVAGILWNGIVTYYADSVKGRFTISRDNAKNEVYLQMNKLKPEDTAVYYCALDRDYGGRSFSAYEYEYWGQGTLVTVSS
notes: F29Y vs F0103362B08 (Kabat)
B3: F010301585 (VHH)
VHH: B2 VHH with Y29F, V57P
notes: V56P vs F0103362B08 (Kabat)
B4: F010301580 (VHH)
VHH: B2 VHH with R27T, Y29F
notes: R27T vs F0103362B08 (Kabat)
B5: F010301595 (VHH)
VHH: B2 VHH with Y29F, D101A
notes: D97A vs F0103362B08 (Kabat)
B6: F010301578 (VHH)
VHH: B2 VHH with Y29F, S30G
notes: S30G vs F0103362B08 (Kabat)
B7: F010301589 (VHH)
VHH: B2 VHH with Y29F, I56P
notes: I55P vs F0103362B08 (Kabat)
B8: F010301593 (VHH)
VHH: B2 VHH with Y29F, R100K
notes: R96K vs F0103362B08 (Kabat)
B9: F010301594 (VHH)
VHH: B2 VHH with Y29F, R105K
notes: R100aK vs F0103362B08 (Kabat)
B10: F010301586 (VHH)
VHH: B2 VHH with Y29F, W53A
notes: W52aA vs F0103362B08 (Kabat)
B11: F010301579 (VHH)
VHH: B2 VHH with R27K, Y29F
notes: R27K vs F0103362B08 (Kabat)
B12: F010301584 (VHH)
VHH: B2 VHH with Y29F, W53T
notes: W52aT vs F0103362B08 (Kabat)
B13: F010301591 (VHH)
VHH: B2 VHH with Y29F, G103K
notes: G99K vs F0103362B08 (Kabat)
B14: F010301568 (VHH)
VHH: B2 VHH with Y29F, G35T
notes: G35T vs F0103362B08 (Kabat)
B15: F010301574 (VHH)
VHH: B2 VHH with Y29F, G35A
notes: G35A vs F0103362B08 (Kabat)
B16: F010301592 (VHH)
VHH: B2 VHH with Y29F, R105S
notes: R100aS vs F0103362B08 (Kabat)
B17: F010302326 (VHH)
VHH: EVQLVESGGGVVQPGGSLRLSCAASGPVFNINRMAWYRQAPGKQRELVAYVTPTGDISYADSVKGRFTISRDGSKRVYLQMNSLRPEDTALYYCRALLQPRSYSNTRTYWGQGTLVTVSS
notes: also called F0103387G04(L11V, A12V, K33R, R39Q, S50Y, S56D, T60A, W78V, S79Y, T83R, V89L, N93R, D99R)
B18: F010301865 (VHH)
VHH: B17 VHH with R101D, S120A
notes: also called F0103387G04(L11V, A12V, K33R, R39Q, S50Y, S56D, T60A, W78V, S79Y, T83R, V89L, N93R)
B19: F010302385 (VHH)
VHH: B17 VHH with D72Q, R101S, N105G
notes: also called F0103387G04(L11V, A12V, K33R, R39Q, S50Y, S56D, T60A, D72Q, W78V, S79Y, T83R, V89L, N93R, D99S, N100cG)

Assays:
[1] = biological target: T1, huNav1.7α + β1-β2-β3 (human Nav1.7α co-expressed with human Navβ1, Navβ2 and Navβ3 on cells) (human); test: binding FACS, CHO FlpIn cells
T1 construct: also called huNav1.7-beta1-beta2-beta3; CHO FlpIn huNav1.7α + β1-β2-β3
How it was run: (§1)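 Flow cytometry read-out of anti-Flag signal on propidium iodide-negative cells measured ISVD binding. Purified FLAG3-tagged ISVD, diluted in PBS with 10% FBS and NaN₃, was applied to the cells for 30 minutes at 4° C.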

[2] = biological target: T2, rhNav1.7α + β1-β2-β3 (rhesus Nav1.7α co-expressed with Navβ1, Navβ2 and Navβ3 on cells) (rhesus monkey (α subunit); β subunits …); test: binding FACS, CHO FlpIn cells
T2 construct: also called rhNav1.7-beta1-beta2-beta3; CHO FlpIn rhNav1.7α + β1-β2-β3
How it was run: as §1

huNav1.7α + β1 (HEKa/β1) = biological target: T3, huNav1.7α + β1 (HEKa/β1) (human, UniProt Q15858 1-1988; Q07699 19-218); test: binding FACS, HEKa/β1 cells
T3 construct: also called HEKa/β1 huNav1.7α
Method: Binding of the ISVDs to cell-expressed Nav1.7α was detected via murine anti-Flag (Sigma, catalog #F1804). Briefly, cells were resuspended in FACS buffer (PBS, 10% FBS, NaN₃) and transferred to a 96-well V-bottom plate at 1×10^5 cells/well. Purified FLAG3-tagged ISVD was diluted in FACS buffer and added to the cells for 30 minutes at 4° C. […] Prior to the read-out, the samples were resuspended in 1 μg/mL propidium iodide (Sigma, catalog #P4170) to exclude dead cells. Between each step, the cells were centrifuged for 5 minutes at 200 grams and washed with 100 μL/well FACS buffer.

huNav1.7α + β1-β2-β3 = biological target: T4, huNav1.7α + β1-β2-β3 (human, UniProt Q15858 1-1988; A5A6L6 19-218; O60939 30-215; Q2KI11 23-215); test: binding FACS, CHO FlpIn cells
T4 construct: Cell line (CHO FlpIn, HEK FlpIn, transient HEK293T) is named under assay; also called huNav1.7-beta1-beta2-beta3; human Nav1.7α with Navβ1, Navβ2 and Navβ3
How it was run: as §1

Binder	Bmax [1] [%]	EC50 [1] [nM]	Bmax [2] [%]	EC50 [2] [nM]	EC50 (huNav1.7α + β1 (HEKa/β1)) [nM]	EC50 (huNav1.7α + β1-β2-β3) [nM]
B1	100	47	50	48		
B2					24	110
B3					53	110
B4					35	180
B5					17	62
B6					30	120
B7					41	120
B8					40	110
B9					29	110
B10					51	170
B11					36	130
B12					42	110
B13					43	93
B14					110	310
B15					29	100
B16					67	200
B17	89	6.2	32	18		
B18	100	20	100	11		
B19	100	7.9	100	5		
